Assay results from US20200408781A1.

How the values were obtained:
[1] = biological target: p217+ tau in pooled CSF from AD subjects (human tau protein or tau fragments phosphorylated at T217 and/or T212) (human) (UniProt P10636); assay: Simoa sandwich ELISA, pT3 capture; pooled AD CSF at 1:2 dilution
[2] = biological target: p217+ tau in pooled CSF from AD subjects (human tau protein or tau fragments phosphorylated at T217 and/or T212) (human) (UniProt P10636); assay: Simoa sandwich ELISA, pT3 capture; pooled AD CSF at 1:4 dilution
[3] = biological target: p217+ tau in pooled CSF from AD subjects (human tau protein or tau fragments phosphorylated at T217 and/or T212) (human) (UniProt P10636); assay: Simoa sandwich ELISA, pT3 capture; pooled AD CSF at 1:8 dilution
[4] = biological target: p217+ tau in pooled CSF from AD subjects (human tau protein or tau fragments phosphorylated at T217 and/or T212) (human) (UniProt P10636); assay: Simoa sandwich ELISA, pT3 capture; pooled AD CSF at 1:16 dilution
[5] = biological target: p217+ tau in pooled CSF from AD subjects (human tau protein or tau fragments phosphorylated at T217 and/or T212) (human) (UniProt P10636); assay: Simoa sandwich ELISA, pT3 capture; pooled AD CSF at 1:32 dilution
[6] = biological target: p217+ tau in pooled CSF from AD subjects (human tau protein or tau fragments phosphorylated at T217 and/or T212) (human) (UniProt P10636); assay: Simoa sandwich ELISA, pT3 capture; pooled AD CSF at 1:64 dilution

Sequence of p217+ tau in pooled CSF from AD subjects (human tau protein or tau fragments phosphorylated at T217 and/or T212) (human) (P10636 other isoform, or with tags, fused parts or gaps limits assumed): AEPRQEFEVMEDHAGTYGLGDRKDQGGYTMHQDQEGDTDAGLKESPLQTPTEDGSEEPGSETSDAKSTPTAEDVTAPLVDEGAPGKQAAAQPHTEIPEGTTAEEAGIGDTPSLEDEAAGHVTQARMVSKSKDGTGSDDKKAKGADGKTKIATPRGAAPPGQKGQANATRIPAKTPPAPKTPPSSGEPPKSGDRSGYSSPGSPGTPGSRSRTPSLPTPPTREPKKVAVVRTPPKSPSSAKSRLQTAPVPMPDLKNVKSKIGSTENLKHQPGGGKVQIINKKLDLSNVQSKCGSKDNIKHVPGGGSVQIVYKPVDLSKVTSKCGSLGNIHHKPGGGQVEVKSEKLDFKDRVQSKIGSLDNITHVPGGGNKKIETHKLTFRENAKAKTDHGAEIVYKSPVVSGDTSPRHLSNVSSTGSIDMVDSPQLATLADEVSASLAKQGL

S/N (Signal/Noise) [1]: 525
S/N (Signal/Noise) [2]: 262
S/N (Signal/Noise) [3]: 147
S/N (Signal/Noise) [4]: 75
S/N (Signal/Noise) [5]: 35
S/N (Signal/Noise) [6]: 19
Substance: Quanterix tau 2.0 assay detector (antibody)
